Reference: patent US20110263436A1
Numbering of substitutions follows the chain as printed.

Assays:
[1] = target: wildtype HCV core 27-39 fragment (…) (Hepatitis C virus); test: flow cytometry titration on yeast displaying the core 27-39 fragment (apparent KD)
[2] = target: HCV NS3 fragment 1190-1216 (…) (Hepatitis C virus); test: flow cytometry titration on yeast displaying the NS3 1190-1216 fragment
[3] = target: HCV NS4 fragment 1692-1713 (…) (Hepatitis C virus); test: flow cytometry titration on yeast displaying the NS4 1692-1713 fragment

B1: anti-HCV core chimeric antibody (HCV core 201-603-486-333) (antibody, V domains shown)
VH: QIQLVQSGPELQKPGKTVKISCKTSGYTFTDYPMHWVKQAPGKGLKWMGWINTETGEPTRVDDFKGRFAFSLETSASTAYLQINNLKDEDTATYFCARGGGVRRQVMDYWGQGTSVTVSS
VL: DIVMSQSPSSLAVSAGEKVTMSCKSSQSLLNSRTRKNYLVWYQQKPGQSPKLLIYWASTRDSGVPDRFTGSGSGTDFTLTISSVQAEDLAVYYCKQSYNLYTFGGGTKLEIKR
**Q.** Which Kd [1] does the source give for B1 here?
**A.** The Kd was 0.7 nM.

B2: anti-HCV NS3 chimeric antibody (HCV NS3 CHO 17-903-132sc171) (antibody, V domains shown)
VH: EVKLVESGGGLVQPGGSLKLSCATSGFTFSDYYMYWVRQTPEKRLEWAAYISNGAGSTYYPDTVKGRFTISRDNAKNTLYLQMSRLKSEDTAMYYCARGLWDGLDYWGQGTTLTVSS
VL: DVVMAQTPLSLPVSLGDQASISCRSSQSLVHSNGNTYLHWYLQRPGQSPKLLIYKVSNRFSGVPDRFSGSGSGTDFTLKISRVEAEDLGVYFCSQSTHVPYTFGGGTKLEIKR
**Q.** How did the Kd [2] turn out when B2 was run?
**A.** The Kd was 68 nM.

B3: anti-HCV NS4 chimeric antibody (HCV NS4 CHO E99H6C34sc203) (antibody, V domains shown)
VH: QIQLVQSGPELKKPGETVKISCKASGYTFTDYSMHWVNQAPGKGLKWMGWINTETGEPTYADDFKGRFAFSLETSASTAYLQINNLKNEDTATYFCTRGGTGYWGQGTTLTVSS
VL: B2 VL with A5T, H31Y, R44K, Y101W
**Q.** For B3, which Kd [3] is on record?
**A.** The Kd was 0.5 nM.
